Laboratory results: patent US20170327854A1, “METHODS FOR CELLOBIOSAN UTILIZATION” (Alliance for Sustainable Energy, LLC, priority 2015, published 2017)

How the values were obtained:
[1] = β-Glucosidase mediated cleavage of cellobiosan (HPLC); assay type: biochemical; conditions: cellobiosan 2 mg/mL, 2.5 to 20 μg of enzyme (four enzyme loadings), 40° C., 90 minutes, FIG. 5
Experimental: (§1) Following the β-glucosidase reaction period, the tubes were placed on ice, filtered through a 0.2 μm filter and analyzed via High-Performance Liquid Chromatography (HPLC; Agilent 1100 series system (Agilent USA, Santa Clara, Calif.)) using a Shodex SP0810 carbohydrate column with de-ashing guard cartridges (BioRad Laboratories, Hercules, Calif.) run at 85° C. with ultra-pure water as the isocratic mobile phase at a flow rate of 0.6 mL/min. A refractive index detector was used for compound detection. By-products were identified by co-elution at the same retention time with pure compounds. Standard curves for substrate (cellobiosan) and products (glucose and levoglucosan) were also generated in order to quantify results. Additionally, enzymes were analyzed via HPLC in buffer alone (without cellobiosan) to ensure no carry-over products inherent to the enzyme preparations.
Each reaction was set up in 1.5 mL microcentrifuge tubes using cellobiosan at a concentration of 2 mg/mL in the following buffers: 50 mM sodium maleate, pH 6.5 (T. maritima and Agrobacterium sp.), and 100 mM sodium acetate, pH 5.0 (P. chrysosporium and A. niger). For each reaction, 2.5 to 20 μg of enzyme was loaded and the total reaction volume was 400 μL. An additional enzyme-free reaction was run simultaneously to ensure cellobiosan cleavage was enzyme-dependent. Reactions were incubated at 40° C. using a dry-block for 90 minutes. In a separate reaction evaluating the substrate concentration, 0.125 μM of purified A. niger β-glucosidase was incubated at 40° C. in a 96-well microtiter plate with 0, 0.5, 1, 2, 4, 8, 16 or 32 mM cellobiose or cellobiosan. Reactions were initiated by the addition of enzyme and quenched by boiling in a thin walled PCR tube at 0.5, 1, 5 and 10 minutes.
as §1, with “the” for “the β-glucosidase”, “periods,” for “period,”, “Agilent1100” for “Agilent 1100”, “ml min^−1.” for “mL/min.”, “(without the addition of” for “(without”

P. putida strain FJPO3 = assay: Growth and mcl-PHA production of strain FJPO3 on levoglucosan; assay type: cell-based, Pseudomonas putida
Excerpt: The levoglucosan kinase (lgk) gene from Lipomyces starkeyi was codon optimized using Gene Designer software from DNA 2.0 and synthesized as a gBlock (SEQ ID NO:1). This fragment was cloned into plasmid pMFL76, which is derived from the commercial PCR-Blunt II Topo vector (ThermoFisher), with the addition of two 1-kb genomic regions located in proximity of the rpoS region of the genome from Pseudomonas putida KT2440 to enable homologous recombination mediated genomic integration into strain KT2440. The Ptac-lgk was inserted in between these 1 kb homology regions and transformed into KT2440. A single kanamycin-resistant transformant was isolated and growth in M9 levoglucosan was confirmed, to generate strain FJPO3.
P. putida produces medium chain-length polyhydroxy-alkanoates (mcl-PHAs), which are high-value polymers that can serve as plastics, adhesive precursors, and as precursors to chemical building blocks or hydrocarbons. As mcl-PHAs represent a potential target to generate from pyrolytic sugars, the generation of mcl-PHAs by P. putida using levoglucosan as its sole carbon source as investigated.
Most growths were in a modified formulation of M9 minimal salts. Briefly, 6.78 g Na2PO4 (anhydrous), 3 g KH2PO4, and 0.5 g NaCl were dissolved in 750 mL deionized H2O. The pH was adjusted to 7.4 with 10 N NaOH and brought to 900 mL with H2O. The solution was autoclaved for 15 minutes at 121° C. and allowed to cool. […]
Growth curves were generated using a Bioscreen C automated microbiology growth curve analysis system from Growth Curves USA. […] Spectrophotometric blanks were subtracted from the measured values and each growth curve represents the average of three independent cultures. The maximum specific growth rate (μmax) was calculated as the maximum slope of the log phase of the growth curve over any given 4 hour period during the course of the experiment. […]
One mL of saturated cultures was centrifuged at 5,000×g for 5 minutes. […] Nile Red fluorescence was detected between 560 and 590 nm using band-pass filtering.

[2] = tested on: P. putida strains FJPO3 and KT2440; assay: Growth of P. putida strains on cellobiose or cellobiosan with addition of abg β-glucosidase; assay type: cell-based, Pseudomonas putida
Experimental: Most growths were in a modified formulation of M9 minimal salts. Briefly, 6.78 g Na2PO4 (anhydrous), 3 g KH2PO4, and 0.5 g NaCl were dissolved in 750 mL deionized H2O. The pH was adjusted to 7.4 with 10 N NaOH and brought to 900 mL with H2O. The solution was autoclaved for 15 minutes at 121° C. and allowed to cool. One hundred μL of 1 M CaCl2 (100 μM final) and 2 mL of 1 M MgSO4-7H2O (2 mM Final), 1 mL of 100 mM FeSO4, (100 μM final) and 10 mL 1 M (NH4)2SO4 (10 mM final) was added. In the case of FIG. 2, 1 mM (NH4)2SO4, was used to induce mcl-PHA production.
Growth curves were generated using a Bioscreen C automated microbiology growth curve analysis system from Growth Curves USA. Overnight cultures were diluted to 0.02 OD in a total volume of 300 μL per well. Incubations were performed at 30° C. with continuous shaking and turbidity measurements (OD420-580) were collected every 15 minutes for the duration of the experiments. Spectrophotometric blanks were subtracted from the measured values and each growth curve represents the average of three independent cultures. The maximum specific growth rate (μmax) was calculated as the maximum slope of the log phase of the growth curve over any given 4 hour period during the course of the experiment. […]

bgl1A: P. chrysosporium β-glucosidase, GH3, GenBank AAC26489, SEQ ID NO: 4
cleavage of cellobiosan to generate glucose and levoglucosan [1]: able to cleave cellobiosan

O[C@@H]1[C@@H](O)[C@@H]2OC[C@@H](O2)[C@H]1O [levoglucosan]
growth profile of FJPO3 compared with glucose (P. putida strain FJPO3; M9 medium, 7.5 g/L levoglucosan vs 7.5 g/L glucose, FIG. 2 Panel A): similar | concentration at which FJPO3 has the capacity to grow (P. putida strain FJPO3; M9 medium, FIG. 2 Panel B): ≤ 60 g/L | mcl-PHA production by FJPO3 (Nile Red fluorescence) (P. putida strain FJPO3; N-limited medium [M9 1mM (NH4)2SO4], levoglucosan as sole carbon source, FIG. 2 Panel C): produces mcl-PHAs

B1: bgl1: A. niger β-glucosidase, GH3, GenBank AJ132386, SEQ ID NO: 3 (protein)
chain: MRFTLIEAVALTAVSLASADELAYSPPYYPSPWANGQGDWAQAYQRAVDIVSQMTLDEKVNLTTGTGWELELCVGQTGGVPRLGVPGMCLQDSPLGVRDSDYNSAFPAGMNVAATWDKNLAYLRGKAMGQEFSDKGADIQLGPAAGPLGRSPDGGRNWEGFSPDPALSGVLFAETIKGIQDAGVVATAKHYIAYEQEHFRQAPEAQGFGFNISESGSANLDDKTMHELYLWPFADAIRAGAGAVMCSYNQINNSYGCQNSYTLNKLLKAELGFQGFVMSDWAAHHAGVSGALAGLDMSMPGDVDYDSGTSYWGTNLTISVLNGTVPQWRVDDMAVRIMAAYYKVGRDRLWTPPNFSSWTRDEYGYKYYYVSEGPYEKVNQYVNVQRNHSELIRRIGADSTVLLKNDGALPLTGKERLVALIGEDAGSNPYGANGCSDRGCDNGTLAMGWGSGTANFPYLVTPEQAISNEVLKHKNGVFTATDNWAIDQIEALAKTASVSLVFVNADSGEGYINVDGNLGDRRNLTLWRNGDNVIKAAASNCNNTIVVIHSVGPVLVNEWYDNPNVTAILWGGLPGQESGNSLADVLYGRVNPGAKSPFTWGKTREAYQDYLVTEPNNGNGAPQEDFVEGVFIDYRGFDKRNETPIYEFGYGLSYTTFNYSNLEVQVLSAPAYEPASGETEAAPTFGEVGNASDYLYPSGLQRITKFIYPWLNGTDLEASSGDASYGQDSSDYLPEGATDGSAQPILPAGGGPGGNPRLYDELIRVSVTIKNTGKVAGDEVPQLYVSLGGPNEPKIVLRQFERITLQPSEETKWSTTLTRRDLANWNVEKQDWEITSYPKMVFVGSSSRKLPLRASLPTVH
modifications: Aspergillus niger
cleavage of cellobiosan to generate glucose and levoglucosan [1]: able to cleave cellobiosan

B2: abg: Agrobacterium sp. β-glucosidase, GH1, GenBank AAA22085.1, SEQ ID NO: 6 (protein, listed as Agrobacterium sp.)
chain: MTDPNTLAARFPGDFLFGVATASFQIEGSTKADGRKPSIWDAFCNMPGHVFGRHNGDIACDHYNRWEEDLDLIKEMGVEAYRFSLAWPRIIPDGFGPINEKGLDFYDRLVDGCKARGIKTYATLYHWDLPLTLMGDGGWASRSTAHAFQRYAKTVMARLGDRLDAVATFNEPWCAVWLSHLYGVHAPGERNMEAALAAMHHINLAHGFGVEASRHVAPKVPVGLVLNAHSAIPASDGEADLKAAERAFQFHNGAFFDPVFKGEYPAEMMEALGDRMPVVEAEDLGIISQKLDWWGLNYYTPMRVADDATPGVEFPATMPAPAVSDVKTDIGWEVYAPALHTLVETLYERYDLPECYITENGACYNMGVENGQVNDQPRLDYYAEHLGIVADLIRDGYPMRGYFAWSLMDNFEWAEGYRMRFGLVHVDYQTQVRTVKNSGKWYSALASGFPKGNHGVAKG
growth of FJPO3 and KT2440 in M9 medium containing cellobiosan plus abg ([2]; cellobiosan, twenty micrograms of enzyme, 30° C., FIG. 6): both FJPO3 and KT2440 are capable of utilizing the glucose component of cellobiosan | growth profiles of KT2440 and FJPO3 in M9 medium containing cellobiose with addition of abg ([2]; cellobiose, FIG. 6 Panel A): virtually indistinguishable | cleavage of cellobiosan to generate glucose and levoglucosan [1]: able to cleave cellobiosan

B3: bglA: T. maritima β-glucosidase, GH1, GenBank CAA52276.1, SEQ ID NO: 5 (protein, listed as Thermotoga maritima)
chain: MNVKKFPEGFLWGVATASYQIEGSPLADGAGMSIWHTFSHTPGNVKNGDTGDVACDHYNRWKEDIEIIEKLGVKAYRFSISWPRILPEGTGRVNQKGLDFYNRIIDTLLEKGITPFVTIYHWDLPFALQLKGGWANREIADWFAEYSRVLFENFGDRVKNWITLNEPWVVAIVGHLYGVHAPGMRDIYVAFRAVHNLLRAHARAVKVFRETVKDGKIGIVFNNGYFEPASEKEEDIRAVRFMHQFNNYPLFLNPIYRGDYPELVLEFAREYLPENYKDDMSEIQEKIDFVGLNYYSGHLVKFDPDAPAKVSFVERDLPKTAMGWEIVPEGIYWILKKVKEEYNPPEVYITENGAAFDDVVSEDGRVHDQNRIDYLKAHIGQAWKAIQEGVPLKGYFVWSLLDNFEWAEGYSKRFGIVYVDYSTQKRIVKDSGYWYSNVVKNNGLED
cleavage of cellobiosan to generate glucose and levoglucosan [1]: able to cleave cellobiosan
